# Measurements from article PMC11544104.
# What was measured:
# [1] = molecular target: H3K56ac-mononucleosome assembled with 35N35 DNA (Xenopus laevis); test: pull-down
# [2] = system: BAF complex, FLAG-DPF2 WT (293T) (human); test: pull-down; conditions: histone H3K56ac (recombinant Xenopus laevis octamer)
fold reduction of the preferential interaction against the WT complex [1],Substance,binding signal (normalized bound DPF2 (reference)) [2]
5 fold,BAF complex containing DPF2 R350H (from UniProt Q92785;P51532),
,"35N35 mononucleosome, H3K56ac",1
5 fold,BAF complex containing DPF2 W369R (from UniProt Q92785;P51532),
5 fold,BAF complex containing DPF2 C330W (from UniProt Q92785;P51532),
